Data taken from publication PMC7933433.

Experiments:
[1] = target: PGR5a fused to the N-terminal part of YFP (PGR5a-YFP^n) (cucumber (Cucumis sativus L.)); assay: split reporter (BiFC, NanoBiT); halves of YFP, transient expression in N. benthamiana leaves, confocal microscopy on the third day; also after 30 min in the dark (state 1) or red light (state 2)
[2] = target: cyt b6f complex of cucumber thylakoid membranes (cucumber (endogenous in cucumber thylakoids)); assay: native gel or EMSA; blue native PAGE of thylakoid membranes (cucumber or tobacco) dissolved in an equal volume of 2% DM, 4 °C, followed by immunoblotting with anti-PGR5; leaf discs also arrested in state 1 or state 2, dark or red light, or incubated with Put

| YFP fluorescence intensity (BiFC), stronger in state 2 than in state 1 [1] [%] | Substance | further results |
| --- | --- | --- |
| 64 | Lhcb3 fused to the C-terminal part of YFP (Lhcb3-YFP^c) (natural protein) | – |
| – | PetC fused to the C-terminal part of YFP (PetC-YFP^c) (natural protein) | YFP fluorescence intensity (BiFC), stronger in state 1 than in state 2 [1]: 64% |
| 67 | PsaH fused to the C-terminal part of YFP (PsaH-YFP^c) (natural protein) | – |
| – | native PGR5 protein of cucumber thylakoid membranes (natural protein) | PGR5 abundance in the cyt b6f complex, higher in state 1 than in state 2 [2]: 40% |
